# Measurements taken from patent publication US20180346605A1 (Janssen / Centocor, published 2018).
# T1: FcγRIIb soluble extracellular domain, C-terminal His-tag (UniProt P31994 43-217, limits assumed)
# T1 construct: extracellular domain
# T1 sequence (looked up): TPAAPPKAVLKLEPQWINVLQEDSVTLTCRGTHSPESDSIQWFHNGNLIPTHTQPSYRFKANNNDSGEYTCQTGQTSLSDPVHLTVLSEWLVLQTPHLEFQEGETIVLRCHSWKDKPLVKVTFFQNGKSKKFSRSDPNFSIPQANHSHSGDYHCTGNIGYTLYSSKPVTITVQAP
# T2: FcγRIIa soluble extracellular domain, C-terminal His-tag (UniProt P12318 34-217, limits assumed)
# T2 construct: extracellular domain
# T2 sequence (looked up): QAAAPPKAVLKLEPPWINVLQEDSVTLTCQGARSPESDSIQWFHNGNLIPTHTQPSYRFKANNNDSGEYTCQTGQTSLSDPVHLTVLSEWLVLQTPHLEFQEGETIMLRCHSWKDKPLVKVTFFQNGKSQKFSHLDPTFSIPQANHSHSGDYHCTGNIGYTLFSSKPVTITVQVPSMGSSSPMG
# B1: bsRSV-L[Q311R] (bispecific antibody, human IgG1, kappa)
# heavy 1: not shown
# light 1: EIVLTQSPGTLSLSPGERATFSCRSSHSIRSRRVAWYQHKPGQAPRLVIHGVSNRASGISDRFSGSGSGTDFTLTITRVEPEDFALYYCQVYGASSYTFGQGTKLERKRTVAAPSVFIFPPSDEQLKSGTASVVCLLNNFYPREAKVQWKVDNALQSGNSQESVTEQDSKDSTYSLSSTLTLSKADYEKHKVYACEVTHQGLSSPVTKSFNRGEC
# heavy 2: not shown
# light 2: not shown
# notes: also called bispecific anti-RSV/gp120 with asymmetrical F405L Q311R
# B2: bsRSV-L[TLQ] (bispecific antibody, human IgG1, kappa)
# heavy 1: not shown
# light 1: B1 light 1
# heavy 2: not shown
# light 2: not shown
# notes: also called bispecific anti-RSV/gp120 with asymmetrical F405L/T307P/L309Q/Q311R
# Experiments:
# [1] = biological target: T1, FcγRIIb soluble extracellular domain, …; test: AlphaScreen competition at pH 7.2: unlabeled competitor antibody titrated against biotinylated wild-type IgG1 (legend: mAb RSV-L) on streptavidin donor beads for His-tagged FcγRIIb (14 ng/mL) on nickel acceptor beads
# [2] = biological target: T3, FcγRI soluble extracellular domain, C-terminal His-tag (UniProt P12314 16-292, limits assumed); test: AlphaScreen competition at pH 7.2: unlabeled competitor antibody titrated against biotinylated IgG1-L234A/L235A (legend: mAb RSV-L) on streptavidin donor beads for His-tagged FcγRI (200 ng/mL) on nickel acceptor beads
# T3 construct: extracellular domain
# His-tagged FcRn = biological target: T4, His-tagged FcRn (UniProt P55899 24-297; P61769 21-119); test: AlphaScreen competition at pH 6.0: unlabeled competitor antibody titrated against biotinylated wild-type IgG1 (legend: mAb RSV-L) on streptavidin donor beads for His-tagged FcRn on nickel acceptor beads
# T4 construct: also called neonatal Fc receptor
# [3] = biological target: T5, FcγRIIIa soluble extracellular domain, C-terminal His-tag (UniProt P08637 17-208, limits assumed); test: AlphaScreen competition at pH 7.2: unlabeled competitor antibody titrated against biotinylated wild-type IgG1 (legend: mAb RSV-L) on streptavidin donor beads for His-tagged FcγRIIIa (200 ng/mL) on nickel acceptor beads
# T5 construct: extracellular domain
# [4] = biological target: T2, FcγRIIa soluble extracellular domain, …; test: AlphaScreen competition at pH 7.2: unlabeled competitor antibody titrated against biotinylated wild-type IgG1 (legend: mAb RSV-L) on streptavidin donor beads for His-tagged FcγRIIa (10 ng/mL) on nickel acceptor beads
Binder,IC50 (read off the curve) [1],IC50 (read off the curve) [2],IC50 (read off the curve) (His-tagged FcRn),IC50 (read off the curve) [3],IC50 (read off the curve) [4]
B1,~100 nM,~4 nM,~50 nM,~80 nM,~100 nM
B2,–,~4 nM,~100 nM,~80 nM,~100 nM
